Here are results for 1 substance from publication PMC10178127, “Immunomodulatory Effects of the Pea Defensin Psd1 in the Caco-2/Immune Cells Co-Culture upon Candida albicans Infection” (International Journal of Molecular Sciences, 2023).

The test system of this data set is C. albicans v47a3. The data set can be described thus: Yeast growth in Caco-2/C. albicans co-culture, microscopy. The settings on record: 2 μM Psd1, 4 and 24 h. The class given is cell-based, Candida albicans. As for the experimental part:
Candida albicans cells in stock were inoculated onto modified YPD (yeast extract 5 g/L, peptone 10 g/L, glucose 10 g/L) agar plates, and incubated for 24 h at 37 °C. After replating, cells were cultured in complete RPMI-1640 (Capricorn Scientific) without antibiotics at 37 °C to optical density 1.0 at 540 nm, centrifuged, and diluted up to the concentration of 5 × 10^4 cells/mL in fresh RPMI-1640 without FBS and antibiotics. In the case of studying combined action on the epithelium of yeast cells and the pea Psd1 recombinant peptide was dissolved in water at the concentration of 200 μM and was added to yeast cell suspension up to the final concentration of 2 μM. Yeast growth and morphology in the presence or absence of peptide under co-cultivation with Caco-2 cells in a 24-well plate were estimated using an inverted microscope, Olympus CKX41 (Olympus, Tokyo, Japan).

Regarding “Psd1: pea defensin from Pisum sativum (UNIPROT P81929), recombinant peptide overexpressed in Escherichia coli (KTCEHLADTYRGVCFTNASCDDHCKNKAHLISGTCHNWKCFCTQNC; UniProt P81929 1-46, looked up)”, the “growth of C. albicans in Caco-2/C. albicans co-culture” value was “did not inhibit the growth of C. albicans”.
